Results on two molecules are retold here after US20150166643A1 (Alexion, published 2015).

Substitutions are numbered along the chain they refer to. In names and notes the source's numbering stands.

Test [1] has as its target T1, human factor B (purified, Complement Technology A135) (human, UniProt P00751 26-764). Briefly: cell-based or functional assay.
Test [2] concerns the target T1, human factor B (purified, Complement …). The test is described as follows: SPR (Biacore), CLS012 captured on anti-Fc surface, soluble factor B 3.1-200 nM flowed; Chi2 6.74, fitted lines depart visibly from the data (the text calls the fits poor). From the text: (§1) Binding kinetics of mAbs were further characterized using Biacore's Surface Plasmon Resonance (SPR) technology (GE Healthcare, Piscataway, N.J.). For a detailed description of SPR and its applications in affinity measurement, please see Karlsson and Larsson, Antibody Engineering: Methods and Protocols, Methods in Molecular Biology (2003), 248: 389-415. In one exemplary experiment, TA106 Fab and derivative mAbs were captured on chips of a Biacore 3000 analyzer and samples of human factor B of different concentrations were flowed as the antigen over the surface to model soluble human factor B binding, using protocols recommended by the manufacturer (e.g., in the product brochure #BR-9003-31). All these referenced publications are hereby incorporated by reference in their entirety. […] Fab TA106 (Xoma, Lot#TTA1007, 20 mg/mL) was then flowed over one flow cell, followed by injections of human factor B on both flow cells. Concentrations (factor B) between 3.1-200 nM were run. The surface was regenerated between each cycle. […] The affinities of mAbs, i.e., CLS011, CLS012, and CLS013, were determined using a similar capture approach. In one exemplary experiment, human anti-Fc antibody was amine coupled to two flow cells of a CM5 chip. Each of the TA106-originated mAbs was then flowed over one flow cell, followed by injecting human factor B (3.1-200 nM) on both flow cells. […]
(In general: In SPR one partner is held on a chip, and binding of the other changes the refractive index at the surface.)

The target is the same in test [3]. Briefly: SPR (Biacore 3000), mAb captured by anti-Fc antibody on CM5 chip, soluble human factor B 3.1-200 nM; filing calls this value not reliable (poor fits); poor fits; patent calls the value not reliable.
From the text: as §1

For test [4] the target is unchanged. The test is described as follows: BLI (Octet), binding to factor B (summary table). As to the method: (§2) Binding kinetics of TA106 and TA106 S33A Fab (CLS016) to Factor B were analyzed using a FortéBio® Octet® biosensor (FortéBio, Inc.) in a similar protocol as described previously. In one exemplary experiment, Factor B (Complement Technology) was biotinylated at a 1:10 ratio and coupled to a streptavidin biosensor at a concentration of 5 μg/mL for a loading time of 600 seconds. Biosensors were briefly dipped in 1×KB as a wash for 30 seconds. Associations with a titration series of Fab with a concentration range from 100 to 3 nM (diluted in 1×KB) were carried out for 600 seconds. Fabs were dissociated from the biosensor by immersing the biosensor in 1×KB during the 600 second dissociation phase. As depicted in FIGS. 19 and 20, both TA106 Fab and TA106-derivative S33A Fab (CLS016) bound to Factor B at various concentrations, resulting in nearly identical association and dissociation profiles. Kinetic assessments using partial local fit parameters yielded identical values for KD/kₐ/Kd at each concentration tested.
A general note: BLI is a label-free optical method that tracks binding on a fibre tip over time.

For test [5] the target is unchanged. The test is described as follows: SPR, factor B on surface, Fab flowed (summary table). From the text:
(§3) Binding kinetics of TA106 Fab and variant S33A Fab (CLS016) were further characterized using Surface Plasmon Resonance (SPR) technology. In one exemplary experiment, both Fabs were captured on chips of a Biacore 3000 analyzer and samples of human factor B of different concentrations were flowed as the antigen over the surface to model soluble human factor B binding, using protocols recommended by the manufacturer and described previously in the instant disclosure. […] In another exemplary experiment, the affinities of both Fabs were also measured by reversing the orientation of the previous experiment. Specifically, human factor B was directly coupled to one flow cell of a CM5 chip. The second flow cell was used as a blank reference with no coupled ligand. CLS016 or TA106 Fab was then flowed on both flow cells. Concentrations between 0.19 to 25 nM were run with duplicates. The surface was regenerated between each cycle.

Test [6] has the same target. Briefly: SPR (Biacore 3000), Fab captured on chip, soluble human factor B 3.1-100 nM.
From the text: as §3

Test [7] shares this target. The test is described as follows: BLI (Octet), biotinylated factor B on streptavidin biosensor, Fab at 25 nM. As to the method: as §2
Test [8] has the same target. Briefly: BLI (Octet), biotinylated factor B on streptavidin biosensor, Fab at 50 nM. Here is the method:
as §2

Test [9] shares this target. Briefly: BLI (Octet), biotinylated factor B on streptavidin biosensor, Fab at 100 nM. As to the method:
as §2

The target is the same in test [10]. Briefly: BLI (Octet), biotinylated factor B on streptavidin biosensor, Fab at 12.5 nM. As to the method: as §2
Test [11] shares this target. The test is described as follows: BLI (Octet), biotinylated factor B on streptavidin biosensor, Fab at 3.13 nM. As to the method: as §2
The target is the same in test [12]. Briefly: BLI (Octet), biotinylated factor B on streptavidin biosensor, Fab at 6.25 nM. As to the method: as §2
The target is the same in test [13]. Briefly: SPR (Biacore), human factor B directly coupled to CM5 chip, Fab flowed at 0.19-25 nM.
From the text: as §3

For test [14] the target is unchanged. Briefly: SPR (Biacore), factor B coupled to the chip, free CLS016 Fab 0.19-25 nM flowed; Chi2 0.121.
From the text: as §3

The target is the same in test [15]. Briefly: SPR (Biacore), CLS016 Fab captured on anti-Fab surface, soluble factor B flowed; Chi2 0.155.
From the text: as §3

Test [16] has the same target. Briefly: SPR (Biacore), factor B coupled to the chip, free CLS016 Fab 0.19-25 nM flowed; Chi2 0.121 (the text rounds to 3.4 nM).
From the text: as §3

T1 sequence (P00751 26-764): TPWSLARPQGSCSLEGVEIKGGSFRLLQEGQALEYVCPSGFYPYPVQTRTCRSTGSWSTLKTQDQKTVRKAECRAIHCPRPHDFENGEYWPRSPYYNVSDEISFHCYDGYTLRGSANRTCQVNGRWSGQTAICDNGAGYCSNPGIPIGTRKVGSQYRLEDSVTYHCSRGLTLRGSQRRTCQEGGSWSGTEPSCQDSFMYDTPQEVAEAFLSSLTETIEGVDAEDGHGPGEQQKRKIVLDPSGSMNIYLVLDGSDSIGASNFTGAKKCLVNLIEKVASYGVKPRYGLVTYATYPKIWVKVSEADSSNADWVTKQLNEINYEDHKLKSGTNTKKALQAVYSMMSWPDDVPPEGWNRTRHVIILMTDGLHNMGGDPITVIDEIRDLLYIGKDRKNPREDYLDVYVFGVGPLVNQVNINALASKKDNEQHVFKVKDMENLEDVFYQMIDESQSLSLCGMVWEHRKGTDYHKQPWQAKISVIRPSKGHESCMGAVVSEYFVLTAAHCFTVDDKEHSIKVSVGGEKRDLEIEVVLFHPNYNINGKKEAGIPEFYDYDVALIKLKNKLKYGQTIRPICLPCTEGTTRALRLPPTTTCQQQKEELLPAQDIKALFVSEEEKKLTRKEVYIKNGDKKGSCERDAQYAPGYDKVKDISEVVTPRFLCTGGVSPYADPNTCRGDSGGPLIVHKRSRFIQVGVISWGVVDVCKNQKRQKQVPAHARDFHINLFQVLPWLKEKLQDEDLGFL

B1: CLS012 (TA106-derivative N31Q variant, full-length IgG2/4 mAb, expressed in CHO cells) (antibody, V domains shown)
VH: EVQLVQSGAEVKKPGASVKVSCKASGYSFTDYYMTWVRQAPGQGLEWMGWINPNSGGTKYAQKFQGRVTMTRDTSISTAYMELSRLRSDDTAVYYCARGYYANSAWFAYWGQGTLVTVSS
VL: DIVMTQSPDSLAVSLGERATINCKSSQSLLQSSTSKNYLAWYQQKPGQPPKLLIYWASTRESGVPDRFSGSGSGTDFTLTISSLQAEDVAVYYCKQVYNLPWTFGQGTKLEIKR
modifications: N-linked glycans on the heavy chain constant region
notes: Human IgG2/4 full-length mAb; also called CLS012 mAb; TA106 variant N31Q
In general, koff refers to the rate constant with which the complex falls apart. High values mean fast dissociation, low ones slow dissociation. For orientation: kon means the second-order rate constant of association. A lower kon goes with slower complex formation. As a reminder, the Kd is the equilibrium constant for the complex coming apart. For the molecule B1, the “IC50 (read off the curve); lysis of rabbit red blood cells in 10% normal human serum” value in test [1] was about 20 nM. In [2], this molecule had an off-rate (koff) of 0.00422 s⁻¹ and a kon of 366000 M⁻¹ s⁻¹. Further, the Kd in test [3] was about 11.5 nM.

B2: CLS016 (TA106-derivative S33A variant, IgG1 Fab, expressed in CHO cells) (Fab, V domains shown)
VH: B1 VH with E1Q
VL: B1 VL with Q31N, S33A
notes: IgG1 Fab of the S33A variant, made in CHO cells; also called TA106 S33A Fab; TA106-derivative S33A Fab
Consider B2, for which the Kd in test [4] was 20 to 30 nM; in test [5], 2.6 nM; in [6] it was about 32.8 nM; in test [7], 22.2 nM; in test [8], 21.5 nM; in [9], 13 nM. Besides, the dissociation constant (Kd) in test [10] is 31.4 nM; in [11], 28 nM; in test [12], 41.9 nM; in [13] it was about 3.4 nM; in test [16], 3.37 nM. The off-rate constant (koff) is 0.00392 s⁻¹ in test [7]; 0.00412 s⁻¹ in [8]; 0.00438 s⁻¹ in test [9]; 0.00353 s⁻¹ in test [10]; 0.00244 s⁻¹ in [11]; 0.00322 s⁻¹ in [12]. Moreover, the off-rate constant (koff) in test [14] stood at 0.00466 s⁻¹; in test [15], 0.00429 s⁻¹. In addition, the kon was found to be 177000 M⁻¹ s⁻¹ in test [7]; 192000 M⁻¹ s⁻¹ in test [8]; 338000 M⁻¹ s⁻¹ in [9]; 112000 M⁻¹ s⁻¹ in test [10]; 87300 M⁻¹ s⁻¹ in test [11]; 76900 M⁻¹ s⁻¹ in [12]. In addition, the figures for the kon in test [14] and in [15] were 1.38e+06 M⁻¹ s⁻¹ and 131000 M⁻¹ s⁻¹, respectively.
